Data on three molecules can be found in patent publication US20250263462A1 (US Dept. of Health and Human Services, published 2025).

Holding throughout (assay): cell-based or functional assay
The target of experiment [1] is T1, KRAS G12D 10-mer peptide … (SEQ ID NO: 2) presented by HLA-A11 on pulsed cells (human, UniProt A*11:01).
Experiment [2] has as its target T2, WT KRAS 10-mer peptide (SEQ ID NO: 30) presented by HLA-A11 on pulsed cells (human, UniProt A*11:01).
In experiment [3] the target is KRAS G12V 10-mer peptide … (SEQ ID NO: 33) presented by HLA-A11 on pulsed cells (human, UniProt A*11:01).
Experiment [4] has as its target HLA-A11 on COS7/A11 cells expressing the KRAS G12D minigene (23-mer SEQ ID NO: 119) (human, UniProt A*11:01).
Experiment [5] has as its target HLA-A11 on COS7/A11 cells expressing the KRAS G12V minigene (23-mer SEQ ID NO: 120) (human, UniProt A*11:01).
The target of experiment [6] is HLA-A11 on COS7/A11 cells expressing the WT KRAS minigene (23-mer SEQ ID NO: 118) (human, UniProt A*11:01).
In experiment [7] the target is KRAS G12D 9-mer peptide KRAS8-16 … (SEQ ID NO: 34) presented by HLA-A11 on pulsed cells (human, UniProt A*11:01).
The target of experiment [8] is T1, KRAS G12D 10-mer peptide … (SEQ ID NO: …). The source holds these as a separate data set.
The target in experiment [9] is T2, WT KRAS 10-mer peptide (SEQ ID NO: 30) …. This is another data set of the same source.

B1: TRAV3-3*01 + TRBV13-1*02 TCR chain pair (TCR, V domains shown)
V domain 1: GEQVEQRPPHLSVREGDSAVITCTYTDPNSYYFFWYKQEPGASLQLLMKVFSSTEINEGQGFTVLLNKKDKRLSLNLTAAHPGDSAAYFCAVSGGTNSAGNKLTFGIGTRVLVRP
V domain 2: EAAVTQSPRNKVTVTGGNVTLSCRQTNSHNYMYWYRQDTGHGLRLIHYSYGAGNLQIGDVPDGYKATRTTQEDFFLLLELASPSQTSLYFCASASWGGYAEQFFGPGTRLTVLE
For B1, the “IFN-γ, PBL + pulsed Cos7/A11” value is 49 pg/mL in experiment [1], 47 pg/mL in experiment [2] and 44 pg/mL in experiment [3]. The “IFN-γ, PBL + Cos7/A11 minigene transfectant” value in experiment [4] turned out to be 56 pg/mL; in experiment [5], 61 pg/mL; in experiment [6], 51 pg/mL.

B2: TRAV19*01 + TRBV4*01 TCR chain pair (TCR, V domains shown)
V domain 1: GQQVKQSSPSLTVQEGGILILNCDYENDMFDYFAWYKKYPDNSPTLLISVRSNVDKREDGRFTVFLNKSGKHFSLHITASQPEDTAVYLCAAGDSGGSNYKLTFGKGTLLTVTP
V domain 2: ETAVFQTPNYHVTQVGNEVSFNCKQTLGHDTMYWYKQDSKKLLKIMFSYNNKQLIVNETVPRRFSPQSSDKAHLNLRIKSVEPEDSAVYLCASSRDWGPAEQFFGPGTRLTVLE
With B2, the “IFN-γ, PBL + pulsed Cos7/A11” value in experiment [1] came to 30 pg/mL; in experiment [2] it was 30 pg/mL; in experiment [3], 27 pg/mL. Further, the figures for the “IFN-γ, PBL + Cos7/A11 minigene transfectant” value in experiment [4], in experiment [5] and in [6] were 27 pg/mL, 30 pg/mL and 32 pg/mL, respectively.

B3: TRAV3-3*01/TRBV4*01 murine anti-KRAS G12V TCR (SEQ ID NOs: 133 and 134) (TCR, V domains shown)
V domain 1: B1 V domain 1
V domain 2: B2 V domain 2
On to B3, for which, in experiment [7], the “IFN-γ, PBL + Cos7/A11 pulsed at 10^-6 (10^× µM)” value (shortened to “IFN-γ … at 10^-6 (10^× µM)”) stood at 47 pg/mL; the “IFN-γ, PBL + Cos7/A11 pulsed at 10^-7 (10^× µM)” value (from here on “IFN-γ … at 10^-7 (10^× µM)”) amounted to 48 pg/mL; the “IFN-γ, PBL + Cos7/A11 pulsed at 10^-8 (10^× µM)” value (“IFN-γ … at 10^-8 (10^× µM)” for short) came to 49 pg/mL; the “IFN-γ, PBL + Cos7/A11 pulsed at 10^-9 (10^× µM)” value (“IFN-γ … at 10^-9 (10^× µM)” for short) was 44 pg/mL. Further, in experiment [7], the “IFN-γ, PBL + Cos7/A11 pulsed at 10^-10 (10^× µM)” value (“IFN-γ … at 10^-10 (10^× µM)” for short) is 52 pg/mL; the “IFN-γ, PBL + Cos7/A11 pulsed at 10^-11 (10^× µM)” value (from here on “IFN-γ … at 10^-11 (10^× µM)”) worked out at 49 pg/mL; the “IFN-γ, PBL + Cos7/A11 pulsed at 10^-12 (10^× µM)” value (from here on “IFN-γ … at 10^-12 (10^× µM)”) was found to be 55 pg/mL; the “IFN-γ, PBL + Cos7/A11 pulsed at 10^-13 (10^× µM)” value (from here on “IFN-γ … at 10^-13 (10^× µM)”) came out at 52 pg/mL. Besides, in [8], the “IFN-γ … at 10^-6 (10^× µM)” value worked out at 43 pg/mL; the “IFN-γ … at 10^-7 (10^× µM)” value turned out to be 40 pg/mL; the “IFN-γ … at 10^-8 (10^× µM)” value was 46 pg/mL; the “IFN-γ … at 10^-9 (10^× µM)” value stood at 41 pg/mL. In addition, in experiment [8], the “IFN-γ … at 10^-10 (10^× µM)” value was found to be 53 pg/mL; the “IFN-γ … at 10^-11 (10^× µM)” value turned out to be 43 pg/mL; the “IFN-γ … at 10^-12 (10^× µM)” value was determined as 49 pg/mL; the “IFN-γ … at 10^-13 (10^× µM)” value was determined as 49 pg/mL. For the same molecule, in experiment [9], the “IFN-γ … at 10^-6 (10^× µM)” value was 50 pg/mL; the “IFN-γ … at 10^-7 (10^× µM)” value came out at 42 pg/mL; the “IFN-γ … at 10^-8 (10^× µM)” value turned out to be 50 pg/mL; the “IFN-γ … at 10^-9 (10^× µM)” value amounted to 50 pg/mL. In experiment [9], the “IFN-γ … at 10^-10 (10^× µM)” value turned out to be 48 pg/mL; the “IFN-γ … at 10^-11 (10^× µM)” value was 55 pg/mL; the “IFN-γ … at 10^-12 (10^× µM)” value worked out at 47 pg/mL; the “IFN-γ … at 10^-13 (10^× µM)” value is 68 pg/mL. Besides, the “IFN-γ, PBL + pulsed Cos7/A11” value in [1] came out at 39 pg/mL. Moreover, the “IFN-γ, PBL + pulsed Cos7/A11” value in experiment [2] amounted to 36 pg/mL. In addition, the “IFN-γ, PBL + Cos7/A11 minigene transfectant” value in [4] amounted to 38 pg/mL. In addition, the “IFN-γ, PBL + Cos7/A11 minigene transfectant” value in experiment [5] turned out to be 11100 pg/mL. In experiment [6], the “IFN-γ, PBL + Cos7/A11 minigene transfectant” value turned out to be 41 pg/mL.
